Literature values in paper PMC5840170.
Where two headings read alike, the source gives them in different places. Blank lines part the entries; values can stand above or below the substance they belong to.

How the values were obtained:
VPS4 MIT (Homo sapiens) [1] = biological target: VPS4 MIT (Homo sapiens) (UniProt Q9UN37)
[2] = biological target: CdvC MIT (Sulfolobus acidocaldarius) (UniProt F2Z6D2)
[3] = biological target: CdvC MIT domain (Sulfolobus acidocaldarius) (UniProt F2Z6D2)
[4] = biological target: CdvB wH domain (Sulfolobus acidocaldarius) (UniProt Q4J924)
Chain of CdvB wH domain (Sulfolobus acidocaldarius) (Q4J924 213-261): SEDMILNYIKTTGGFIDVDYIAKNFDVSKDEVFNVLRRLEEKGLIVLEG

[5] = biological target: CdvC MIT domain (Sulfolobus acidocaldarius) (UniProt F2Z6D2); remark: listed apart in the source
[6] = biological target: EAP20 (Vps25) winged helix (wH) (Homo sapiens) (UniProt Q9BRG1)
Chain of EAP20 (Vps25) winged helix (wH) (Homo sapiens) (Q9BRG1 102-176): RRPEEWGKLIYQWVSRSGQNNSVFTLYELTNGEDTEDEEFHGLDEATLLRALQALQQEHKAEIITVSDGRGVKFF

[7] = biological target: CdvB wH domain (Sulfolobus acidocaldarius) (UniProt Q4J924); remark: listed apart in the source
VPS4 MIT (Homo sapiens) [8] = biological target: VPS4 MIT (Homo sapiens) (UniProt Q9UN37); remark: listed apart in the source
VPS4 (Homo sapiens) = VPS4 (Homo sapiens) (UniProt Q9UN37)
Chain of VPS4 (Homo sapiens) (Q9UN37 whole entry): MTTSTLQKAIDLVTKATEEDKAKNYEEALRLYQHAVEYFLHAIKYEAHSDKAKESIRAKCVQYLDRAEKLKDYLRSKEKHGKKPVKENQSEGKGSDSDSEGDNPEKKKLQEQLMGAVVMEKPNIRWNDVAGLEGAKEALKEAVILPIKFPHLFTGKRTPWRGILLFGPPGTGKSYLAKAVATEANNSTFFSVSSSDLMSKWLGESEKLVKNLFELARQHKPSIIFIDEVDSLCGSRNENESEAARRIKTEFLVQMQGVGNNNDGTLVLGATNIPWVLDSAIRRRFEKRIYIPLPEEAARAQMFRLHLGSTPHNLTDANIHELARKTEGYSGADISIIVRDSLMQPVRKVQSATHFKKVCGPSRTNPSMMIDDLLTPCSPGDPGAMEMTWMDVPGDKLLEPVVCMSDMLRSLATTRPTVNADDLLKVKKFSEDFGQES

VPS4 MIT (Homo sapiens) [9] = biological target: VPS4 MIT (Homo sapiens) (UniProt Q9UN37); remark: listed apart in the source
[10] = biological target: Vps4 MIT (Saccharomyces cerevisiae) (UniProt P52917)
Chain of Vps4 MIT (Saccharomyces cerevisiae) (P52917 1-83): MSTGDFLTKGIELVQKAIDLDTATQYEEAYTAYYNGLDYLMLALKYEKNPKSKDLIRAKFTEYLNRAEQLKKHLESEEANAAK

[11] = biological target: ESCRT-III subunit (Vps2) α5 helix (Saccharomyces cerevisiae) (UniProt P36108)
Chain of ESCRT-III subunit (Vps2) α5 helix (Saccharomyces cerevisiae) (P36108 165-184): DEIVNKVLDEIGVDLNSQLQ

[12] = biological target: CdvC MIT (Sulfolobus acidocaldarius) (UniProt F2Z6D2); remark: listed apart in the source
[13] = biological target: CdvC MIT domain (Sulfolobus acidocaldarius) (UniProt F2Z6D2); remark: listed apart in the source
[14] = biological target: Vps4 (Saccharomyces cerevisiae) (UniProt P52917)
Chain of Vps4 (Saccharomyces cerevisiae) (P52917 whole entry): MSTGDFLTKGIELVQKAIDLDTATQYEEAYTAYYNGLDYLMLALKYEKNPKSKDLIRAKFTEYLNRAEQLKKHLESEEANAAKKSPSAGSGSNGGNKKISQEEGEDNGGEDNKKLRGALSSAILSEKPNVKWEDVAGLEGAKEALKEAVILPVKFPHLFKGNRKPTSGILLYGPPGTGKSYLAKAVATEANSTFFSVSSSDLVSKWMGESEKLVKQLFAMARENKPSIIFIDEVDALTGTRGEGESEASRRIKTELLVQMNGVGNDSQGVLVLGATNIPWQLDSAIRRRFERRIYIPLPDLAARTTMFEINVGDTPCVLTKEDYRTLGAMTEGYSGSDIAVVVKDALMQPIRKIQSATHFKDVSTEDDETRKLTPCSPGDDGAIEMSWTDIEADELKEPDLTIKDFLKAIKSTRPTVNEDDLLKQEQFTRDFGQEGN

EAP20 (Homo sapiens) = EAP20 (Homo sapiens) (UniProt Q9BRG1)
Chain of EAP20 (Homo sapiens) (Q9BRG1 whole entry): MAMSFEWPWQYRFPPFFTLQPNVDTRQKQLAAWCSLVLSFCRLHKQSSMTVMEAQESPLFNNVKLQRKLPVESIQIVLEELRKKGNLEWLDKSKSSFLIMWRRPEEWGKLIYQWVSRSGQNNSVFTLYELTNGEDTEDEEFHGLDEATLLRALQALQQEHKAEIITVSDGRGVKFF

Chain of CdvC MIT domain (Sulfolobus acidocaldarius) (F2Z6D2 8-76): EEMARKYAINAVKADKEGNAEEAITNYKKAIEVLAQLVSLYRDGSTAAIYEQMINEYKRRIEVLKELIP
Chain of VPS4 MIT (Homo sapiens) (Q9UN37 1-83): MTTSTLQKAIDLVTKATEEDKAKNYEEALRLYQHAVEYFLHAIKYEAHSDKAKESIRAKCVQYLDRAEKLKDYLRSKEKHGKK
Chain of CdvC MIT (Sulfolobus acidocaldarius) (F2Z6D2 8-76): as the sequence (F2Z6D2 8-76) above
Chain of CHMP4 (Q9H444 2-224): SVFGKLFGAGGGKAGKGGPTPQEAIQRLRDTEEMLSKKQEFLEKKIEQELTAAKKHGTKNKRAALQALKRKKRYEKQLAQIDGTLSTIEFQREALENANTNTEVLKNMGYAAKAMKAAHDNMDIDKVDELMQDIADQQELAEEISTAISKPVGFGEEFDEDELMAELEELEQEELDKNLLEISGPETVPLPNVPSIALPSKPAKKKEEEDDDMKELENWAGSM
Chain of CHMP6 (Vps20) (Q96FZ7 2-201): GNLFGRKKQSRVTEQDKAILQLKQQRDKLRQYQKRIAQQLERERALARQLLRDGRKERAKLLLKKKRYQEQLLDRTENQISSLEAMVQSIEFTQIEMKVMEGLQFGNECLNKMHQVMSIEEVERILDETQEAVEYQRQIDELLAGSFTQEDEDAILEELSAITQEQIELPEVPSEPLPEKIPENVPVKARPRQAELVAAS
Chain of CHMP6 (Q96FZ7 2-201): as above
Chain of Vps4 central pore loops (P52917 whole entry, looked up): as the sequence (P52917 whole entry) above
Chain of CdvA E3B peptide (Q4J923 214-238): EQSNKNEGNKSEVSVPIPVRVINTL
Chain of CdvB1 C-terminus (Q4JBG6 195-214): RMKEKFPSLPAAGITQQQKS
Chain of CdvA E3B (Q4J923 216-238): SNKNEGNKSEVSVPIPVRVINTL
Chain of CdvB2 C-terminus (Q4J8Y4 200-219): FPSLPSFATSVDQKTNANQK
Chain of Vps2 MIM1 (P36108 211-232): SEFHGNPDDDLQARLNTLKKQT
Chain of Vps2 (P36108 whole entry): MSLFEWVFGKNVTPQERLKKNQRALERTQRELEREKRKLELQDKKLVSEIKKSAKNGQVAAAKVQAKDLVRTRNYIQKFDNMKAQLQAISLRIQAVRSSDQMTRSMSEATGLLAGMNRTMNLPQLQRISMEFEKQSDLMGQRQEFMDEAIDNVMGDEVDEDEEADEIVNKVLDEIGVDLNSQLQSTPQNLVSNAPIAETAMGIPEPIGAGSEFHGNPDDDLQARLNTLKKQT
Chain of CdvB 177-261 (Q4J924 177-261): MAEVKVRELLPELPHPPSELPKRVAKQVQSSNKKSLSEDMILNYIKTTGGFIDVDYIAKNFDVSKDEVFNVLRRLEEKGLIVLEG

Substance: CdvB 177-261 (from UniProt Q4J924)
Kd [3]: 30 µM

Substance: CdvA E3B (from UniProt Q4J923)
Kd [4]: 6 µM

Substance: CHMP6 (Vps20) (from UniProt Q96FZ7)
Kd [6]: 7 µM

Substance: CHMP4 (from UniProt Q9H444)
Kd (VPS4 MIT (Homo sapiens) [8]): > 100 µM

Substance: CdvB2 C-terminus (from UniProt Q4J8Y4)
Kd [13]: > 100 µM

Substance: Vps2 (from UniProt P36108)
Kd [14]: 30 µM

Substance: CHMP6 (from UniProt Q96FZ7)
Kd (EAP20 (Homo sapiens)): 7 µM

Second part, the substance after the results:

Kd (VPS4 MIT (Homo sapiens) [1]): 30 µM
Substance: CHMP6 MIM2 (from UniProt Q96FZ7)

Kd [2]: > 100 µM
Substance: CdvB1 C-terminus peptide (from UniProt Q4JBG6)

Kd [5]: > 100 µM
Substance: CdvB1 C-terminus (from UniProt Q4JBG6)

Kd [7]: 6 µM
Substance: CdvA E3B peptide (from UniProt Q4J923)

Kd (VPS4 (Homo sapiens)): 4.5 µM
Kd (VPS4 MIT (Homo sapiens) [9]): 4.5 µM
Substance: CHMP1A MIM1 (from UniProt Q9HD42)

Kd [10]: 30 µM
Substance: Vps2 MIM1 (from UniProt P36108)

Kd [11]: 2 µM
Substance: Vps4 central pore loops (from UniProt P52917)

Kd [12]: > 100 µM
Substance: CdvB2 C-terminus peptide (from UniProt Q4J8Y4)
